10 substances from US12138304 can be followed below.

Assay [1] addresses BG505 F14 SOSIP (HIV-1 (clade A BG505)). As to the kind of experiment: BLI dose response, one site specific binding fit to the average of two experiments.
Assay [2] concerns the target BG505 F14/Vt8 SOSIP (HIV-1 (clade A BG505)). The assay is described as above.
The target in assay [3] is BG505 SOSIP (HIV-1 (clade A BG505)). The assay is described as above.
Assay [4] deals with BG505 Vt8 SOSIP (HIV-1 (clade A BG505)). The description is as above.
Assay [5] concerns the target BG505 DS gp160 (cell surface expressed trimer) (HIV-1 (clade A BG505)). Briefly: flow cytometry, 293F cells expressing gp160; mean of 3 experiments ± SD.
The target of assay [6] is BG505 F14 gp160 (cell surface expressed trimer) (HIV-1 (clade A BG505)). The assay is described as above.
The target of assay [7] is BG505 F14/Vt8 gp160 (cell surface expressed trimer) (HIV-1 (clade A BG505)). The description is as above.
Assay [8] concerns the target BG505 Vt8 gp160 (cell surface expressed trimer) (HIV-1 (clade A BG505)). The assay is described as above.
The target in assay [9] is BG505 gp160 (cell surface expressed trimer) (HIV-1 (clade A BG505)). The assay is described as above.
For assay [10], the target named is BG505 F14/Vt8 SOSIP (HIV-1 (clade A BG505)). As to the kind of experiment: BLI dose response, antibody captured on anti-human Fc tips, SOSIP in solution.
Assay [11] deals with BG505 Vt8 SOSIP (HIV-1 (clade A BG505)). Described as above.
For another assay, the target named is soluble CD4 (sCD4) (UniProt P01730). Briefly: SPR, apparent affinity for sCD4.
The target of assay [12] is BG505 DS gp160 (cell surface expressed trimer) (HIV-1 (clade A BG505)). Briefly: flow cytometry, 293F cells expressing gp160, antibody 10 ug/mL.
Assay [13] has as its target BG505 F14 gp160 (cell surface expressed trimer) (HIV-1 (clade A BG505)). The assay is described as above.
Assay [14] concerns the target BG505 F14/Vt8 gp160 (cell surface expressed trimer) (HIV-1 (clade A BG505)). Described as above.
The target in assay [15] is BG505 Vt8 gp160 (cell surface expressed trimer) (HIV-1 (clade A BG505)). Described as above.
Assay [16] deals with BG505 gp160 (cell surface expressed trimer) (HIV-1 (clade A BG505)). The description is as above.

Consider PG9 (antibody), for which the Kd is 45.9 nM in assay [1], 337 nM in assay [2], 444 nM in assay [3] and 335 nM in [4].

Turning to PGT145 (antibody), the percentage of cells binding in assay [5] turned out to be 35.4%; in [6], 48.8%; in [7], 34.8%; in [8], 38.2%; in assay [9], 46%. Also, the Kd in [1] came out at 76.5 nM; in [2], 80.2 nM; in assay [3] it was 64.2 nM; in [4] it was 68 nM.

In the case of VRC26 (antibody), the Kd came to 50.2 nM in assay [1], 50.6 nM in assay [2], 67.6 nM in [3] and 60.4 nM in [4].

For the substance VRC01 (antibody), the fold enhancement of affinity relative to BG505 SOSIP in [10] and in [11] was 2 fold in each case. Moreover, the Kd was 566 nM in assay [1], 314 nM in assay [2], 612 nM in assay [3] and 269 nM in [4].

Consider BG505 SOSIP, for which the Kd in the assay with soluble CD4 (sCD4) worked out at 67.9 nM.

As for PGT125 (antibody), the percentage of cells binding was found to be 38.2% in assay [5]; 54.7% in assay [6]; 37.9% in assay [7]; 43.2% in assay [8]; 47.1% in assay [9].

On to N6 (antibody), for which the MFI in assay [12] stood at 338 MFI; in assay [13] it was 568 MFI; in assay [14], 341 MFI; in [15] it was 378 MFI; in [16], 457 MFI. Moreover, the percentage of cells binding in assay [5] is 41%; in [6], 53.9%; in assay [7] it was 40.3%; in assay [8], 44.4%; in [9], 45.3%.

Turning to PGT151 (antibody), the Kd was determined as 23.3 nM in assay [1], 24 nM in assay [2], 26.9 nM in assay [3] and 24 nM in assay [4].

As for CH01 (antibody), the percentage of cells binding was 20.8% in assay [5]; 37.7% in [6]; 22.1% in [7]; 30.2% in [8]; 32.8% in assay [9].

Turning to PGT121 (antibody), the Kd in [1] came out at 219 nM; in assay [2], 262 nM; in assay [3], 222 nM; in assay [4], 260 nM.
